# Substitutions are numbered along the chain they refer to.
# B1: LuVA (protein)
# DNA: MTVPEEIVLQPIKDISGIVTLPGSKSLSNRILLLAALSEGKTVVDNLLNSDDVHYMLGALKTLGLNVEHSSEQKRAIVEGRGGVFPVGKLGKNDIELFLGNAGTAMRPLTAAVTAAGGNSSYILDGVPRMRERPIGDLVVGLKQLGADVSCSSTSCPPVHVNAKGGLPGGKVKLSGSISSQYLTALLMAAPLALGDVEIEIVDKLISVPYVDMTLKLMERFGVAVEHSGSWDRFFVKGGQKYKSPGNAYVEGDASSASYFLAGAAITGGTITVEGCGTSSLQGDVKFAEVLEKMGAKVTWTETSVTVTGPPRDASGKKHLRAVDVNMNKMPDAAMTLAVVALYADGPTAIRDVASWRVKETERMIAVCTELRKLGATVEEGPDYCIITPPEKLSIAEIDTYDDHRMAMAFSLAACADVPVTIRDPGCTKKTFPDYFEVLERYTKH
# modifications: This sequence is synthesized in lab.
# B2: LuGPV (protein)
# DNA: B1 DNA with G103A, P108S
# modifications: This sequence is synthesized in lab.
# B3: LuTIPTVA (protein)
# DNA: B1 DNA with T104I, P108T
# modifications: This sequence is synthesized in lab.
# B4: GmVA (protein)
# DNA: MAAAEKPSTAPEIVLEPIKDISGTITLPGSKSLSNRILLLAALSEGTTVVDNLLYSEDIHYMLGALRTLGLRVEDDQTTKQAIVEGCGGLFPTIKESKDEINLFLGNAGTAMRPLTAAVVAAGGNASYVLDGVPRMRERPIGDLVAGLKQLGADVDCFLGTNCPPVRVNGKGGLPGGKVKLSGSISSQYLTALLMAAPLALGDVEIEIVDKLISVPYVEMTLKLMERFGVSVEHSGNWDKFLVHGGQKYKSPGNAFVEGDASSASYFLAGAAVTGGTITVNGCGTNSLQGDVKFAEVLEKMGAKVTWSENSVTVTGPPQDSSGQKVLQGIDVNMNKMPDAAMTLAVVALFANGQTAIRDVASWRVKETERMIAICTELRKLGATVEEGPDYCVITPPEKLNVTAIDTYDDHRMAMAFSLAACGDVPVTIKDPGCTRKTFPDYFEVLERFTRH
# modifications: This sequence is synthesized in lab.
# B5: TaVA (protein)
# DNA: MAGAEEVVLQPIREISGAVQLPGSKSLSNRILLLSALSEGTTVVDNLLNSEDVHYMLEALEALGLSVEADKVAKRAVVVGCGGRFPVEKDAKEEVKLFLGNAGTAMRPLTAAVVAAGGNATYVLDGVPRMRERPIGDLVVGLQQLGADVDCFLGTNCPPVRINGKGGLPGGKVKLSGSISSQYLSSLLMAAPLALEDVEIEIIDKLISVPYVEMTLKLMEHFGVTAEHSDSWDRFYIKGGQKYKSPGNAYVEGDASSASYFLAGAAITGGTVTVEGCGTTSLQGDVKFAEVLEMMGAKVTWTDTSVTVTGPPRQPFGRKHLKAVDVNMNKMPDAAMTLAVVALFADGPTAIRDVASWRVKETERMVAIRTELTKLGATVEEGPDYCIITPPEKLNITAIDTYDDHRMAMAFSLAACAEVPVTIRDPGCTRKTFPNYFDVLSTFVKN
# modifications: This sequence is synthesized in lab.
# What was measured:
# Format in all cases: cell-based
# E. coli lacking EPSPS [1] = experiment: Resistance test of flax EPSPS V403A mutant and comparison with wild type (FIG. 4); details: presence of 1 mM and 2 mM glyphosate
# Description: The flax (Linum usitatissimum) EPSPS mutant sequence(SEQ ID NO: 27) was synthesized and cloned into the pKED2 vector to obtain the vector LuVA. The vector LuWt was created after introducing A403V mutation by PCR.
# (§1) a) PCR system: According to the primer and template mixed PCR system corresponding to the target vector in the above table, the forward primer was 1.25 μl, the reverse primer was 1.25 μl, the template plasmid was 2 μl, the Q5 PCR master mix was 12.5 μl, and ddH2O was […].
# (§2) b) PCR reaction conditions were as follows: the annealing temperature was set according to the annealing temperature corresponding to the target carrier in the above table.
# (§3) c) Took out 5 μl of the obtained PCR product and added it to the loading buffer for agarose gel electrophoresis. A band with a size of about 4.5 kb was considered successful.
# (§4) d) Used NEB's KLD enzyme mixture to remove the template and then connected the PCR product. The connection system was 5 μl KLD buffer, 1 μl KLD MIX, 1 μl PCR product, and ddH2O 3 μl. After ligating at room temperature for 5 min, transformed it into E. coli.
# e) The ligation product was transformed into Dh5a competent E. coli lacking EPSPS. After resuscitation, the cells were washed twice with M9 medium, and then the washed cells were spread on M9 medium and cultured for 48 h. […]
# E. coli lacking EPSPS [2] = experiment: Resistance identification of flax EPSPS mutants LuGPV, LuTIPT, LuTIPTVA (FIG. 5, FIG. 6)
# Source text: The G172 position and P177 position of LuVA were mutated into A and S at the same time by PCR, and a 3-point mutant LuGPV was obtained.
# The T173 and P177 positions of LuWT were simultaneously mutated to I and T by PCR, and a […] mutant LuTIPT was obtained.
# The T173 and P177 positions of LuVA were simultaneously mutated to I and T by PCR, and a 3-point mutant LuTIPTVA was obtained.
# as §1, §2, §3
# (§5) d) Used NEB's KLD enzyme mixture to remove the template and connected the PCR product. The connection system was 5 μl KLD buffer, 1 μl KLD MIX, 1 μl PCR product, and ddH2O 3 μl. After ligating at room temperature for 5 min, transformed it into E. coli.
# e) The ligation product was transformed into Dh5a competent E. coli lacking EPSPS. After resuscitation, the cells were washed twice with M9 medium, and then the washed cells were spread on M9 medium and cultured for 48 h. Sequenced the grown single colony (Tsingke Biological Technology Co., Ltd.), and selected the correct mutant to save for future use.
# The resistance results were shown in FIG. 5: LuWt(SEQ ID NO:26) represents the EPSPS2 gene of flax, LuGPV (SEQ ID NO:30) represents the flax G172A+P177S+V403A three-point mutant. The resistance results were shown in FIG. 6: LuTIPT (SEQ ID NO:28) was the flax T173I+[…] double-point mutants, LuTIPTVA (SEQ ID NO:29) was flax T173I+P177T+V403A three-point mutants.
# E. coli lacking EPSPS [3] = experiment: Resistance test of soybean EPSPS mutant and comparison with wild type (FIG. 4); details: 0.5 mM glyphosate
# Source text: According to the wild-type sequence information of soybean (Glycine max) EPSPS (SEQ ID NO:36), the gene was synthesized and inserted into the vector pKED2 to obtain the vector GmWt. The V403 site of GmWt was mutated to A by PCR, and the vector GmVA expressing the soybean EPSPS mutant protein containing the V403A mutation was obtained. The specific experimental steps were as following:
# as §1, §2, §3, §5
# (§6) e) The ligation product was transformed into Dh5a competent E. coli lacking EPSPS. […]
# E. coli lacking EPSPS [4] = experiment: Resistance test of wheat EPSPS mutant and comparison with wild type (FIG. 4); details: 0.2 mM glyphosate
# Source text: The gene was synthesized according to the V403A mutant sequence information (SEQ ID NO:32) of the EPSPS gene on chromosome 7 of the wheat A genome and inserted into the vector pKED2 to obtain the wheat (Triticum vulgare) EPSPS mutant expression vector TaVA containing the V403A mutation. The A403 site of TaVA was mutated back to V by PCR, and a TaWt vector expressing the EPSPS wild-type gene on chromosome 7 of wheat A genome was obtained.
# as §1, §2, §3, §4, §6
molecule,measurement,setting,value
B1,growth status compared with LuWt,E. coli lacking EPSPS [1],significantly better than that of LuWt
B2,resistance compared with CP4 (colony saturation),E. coli lacking EPSPS [2]; 100 mM glyphosate pressure,higher than CP4
same,glyphosate resistance,"E. coli lacking EPSPS [2]; flax EPSPS mutant in E. coli, FIG. 5",strong glyphosate resistance
B3,resistance compared with LuTIPT,E. coli lacking EPSPS [2]; FIG. 6,higher than that of LuTIPT
B4,growth status compared with GmWt,E. coli lacking EPSPS [3],significantly higher than that of GmWt
B5,growth state compared with TaWt,E. coli lacking EPSPS [4],significantly higher than that of TaWt

# — US20250277196A1, “EPSPS MUTANTS AND METHOD OF ITS USES” (CROPEDIT BIOTECHNOLOGY INC., priority 2021, published 2025)
